Measured values published in the Human Domainome abundance scans (Beltran et al. 2025).
± gives the uncertainty stated by the source.

Assay: abundance fitness (aPCA) (normalised: wild type 0, dead -1); higher = more abundant; growth selection in yeast, the domain comes from the species named
Conditions: Homo sapiens

Row | Substance | abundance fitness
1 | BAG family molecular chaperone regulator 3 S44T, O95817 | 0.209 ± 0.11
2 | BAG family molecular chaperone regulator 3 V54Y, O95817 | -0.376 ± 0.25
3 | BAG family molecular chaperone regulator 3 N16K, O95817 | 1.04 ± 0.12
4 | SAFB-like transcription modulator G61K, Q9NWH9 | -0.18 ± 0.06
5 | BAG family molecular chaperone regulator 3 R45D, O95817 | -0.557 ± 0.32
6 | SAFB-like transcription modulator V47P, Q9NWH9 | -0.585 ± 0.056
7 | SAFB-like transcription modulator L34S, Q9NWH9 | -0.778 ± 0.038
8 | SAFB-like transcription modulator E59D, Q9NWH9 | -0.225 ± 0.087
9 | BAG family molecular chaperone regulator 3 W36S, O95817 | 1.56 ± 0.45
10 | SAFB-like transcription modulator R37L, Q9NWH9 | -0.71 ± 0.045
11 | SAFB-like transcription modulator L30A, Q9NWH9 | -0.581 ± 0.035
12 | SAFB-like transcription modulator L52W, Q9NWH9 | -1.15 ± 0.14
13 | BAG family molecular chaperone regulator 3 N43V, O95817 | -0.418 ± 0.12
14 | SAFB-like transcription modulator E59I, Q9NWH9 | -0.784 ± 0.1
15 | SAFB-like transcription modulator P63H, Q9NWH9 | -0.397 ± 0.049
16 | SAFB-like transcription modulator S50C, Q9NWH9 | -0.342 ± 0.082
17 | BAG family molecular chaperone regulator 3 R19L, O95817 | -0.455 ± 0.17
18 | BAG family molecular chaperone regulator 3 L22H, O95817 | -0.796 ± 0.37
19 | SAFB-like transcription modulator E58S, Q9NWH9 | 0.024 ± 0.053
20 | SAFB-like transcription modulator N38E, Q9NWH9 | -0.153 ± 0.034
21 | SAFB-like transcription modulator E67I, Q9NWH9 | 0.017 ± 0.08
22 | BAG family molecular chaperone regulator 3 P32E, O95817 | -0.285 ± 0.13
23 | BAG family molecular chaperone regulator 3 F38M, O95817 | 0.197 ± 0.14
24 | SAFB-like transcription modulator T42A, Q9NWH9 | -0.045 ± 0.092
25 | BAG family molecular chaperone regulator 3 R53E, O95817 | -0.646 ± 0.14

Row | Substance | abundance fitness
26 | SAFB-like transcription modulator R37T, Q9NWH9 | -0.751 ± 0.078
27 | BAG family molecular chaperone regulator 3 S56W, O95817 | -0.473 ± 0.13
28 | SAFB-like transcription modulator V44F, Q9NWH9 | 0.002 ± 0.075
29 | BAG family molecular chaperone regulator 3 D31R, O95817 | -0.473 ± 0.071
30 | SAFB-like transcription modulator E58K, Q9NWH9 | -0.134 ± 0.084
31 | SAFB-like transcription modulator N38H, Q9NWH9 | -0.492 ± 0.2
32 | BAG family molecular chaperone regulator 3 R53C, O95817 | -0.551 ± 0.23
33 | SAFB-like transcription modulator I56R, Q9NWH9 | -0.485 ± 0.07
34 | BAG family molecular chaperone regulator 3 S14E, O95817 | 0.233 ± 0.085
35 | SAFB-like transcription modulator I22P, Q9NWH9 | -0.736 ± 0.089
36 | BAG family molecular chaperone regulator 3 G58S, O95817 | -0.193 ± 0.11
37 | SAFB-like transcription modulator E58Q, Q9NWH9 | -0.014 ± 0.077
38 | SAFB-like transcription modulator L68A, Q9NWH9 | 0.219 ± 0.15
39 | BAG family molecular chaperone regulator 3 P21D, O95817 | -0.124 ± 0.16
40 | SAFB-like transcription modulator G60E, Q9NWH9 | -0.347 ± 0.05
41 | SAFB-like transcription modulator E58C, Q9NWH9 | -0.113 ± 0.064
42 | SAFB-like transcription modulator K21L, Q9NWH9 | -0.324 ± 0.041
43 | BAG family molecular chaperone regulator 3 N43K, O95817 | -0.648 ± 0.24
44 | SAFB-like transcription modulator I22R, Q9NWH9 | -0.743 ± 0.048
45 | BAG family molecular chaperone regulator 3 G35S, O95817 | 0.442 ± 0.064
46 | BAG family molecular chaperone regulator 3 G17A, O95817 | 0.55 ± 0.09
47 | SAFB-like transcription modulator T46L, Q9NWH9 | -0.082 ± 0.052
48 | BAG family molecular chaperone regulator 3 V12E, O95817 | -0.594 ± 0.26
49 | SAFB-like transcription modulator L25N, Q9NWH9 | -0.172 ± 0.18
50 | BAG family molecular chaperone regulator 3 T34A, O95817 | 0.131 ± 0.12

Row | Substance | abundance fitness
51 | SAFB-like transcription modulator G61W, Q9NWH9 | -0.537 ± 0.059
52 | BAG family molecular chaperone regulator 3 K29G, O95817 | -0.531 ± 0.083
53 | SAFB-like transcription modulator R26H, Q9NWH9 | -0.322 ± 0.23
54 | BAG family molecular chaperone regulator 3 P52H, O95817 | -0.542 ± 0.48
55 | SAFB-like transcription modulator E57K, Q9NWH9 | -0.159 ± 0.11
56 | SAFB-like transcription modulator V27T, Q9NWH9 | 0.086 ± 0.092
57 | SAFB-like transcription modulator N65E, Q9NWH9 | -0.165 ± 0.069
58 | SAFB-like transcription modulator I22A, Q9NWH9 | -0.65 ± 0.078
59 | SAFB-like transcription modulator N65A, Q9NWH9 | -0.236 ± 0.065
60 | BAG family molecular chaperone regulator 3 P37S, O95817 | 0.7 ± 0.072
61 | BAG family molecular chaperone regulator 3 E27N, O95817 | -0.889 ± 0.22
62 | BAG family molecular chaperone regulator 3 W49F, O95817 | -0.227 ± 0.42
63 | BAG family molecular chaperone regulator 3 V40E, O95817 | -0.661 ± 0.18
64 | BAG family molecular chaperone regulator 3 P24A, O95817 | -0.464 ± 0.096
65 | SAFB-like transcription modulator K35A, Q9NWH9 | -0.08 ± 0.072
66 | SAFB-like transcription modulator L25V, Q9NWH9 | -0.748 ± 0.061
67 | BAG family molecular chaperone regulator 3 P21L, O95817 | -0.112 ± 0.094
68 | BAG family molecular chaperone regulator 3 I30P, O95817 | -0.661 ± 0.084
69 | SAFB-like transcription modulator L48W, Q9NWH9 | -0.613 ± 0.04
70 | SAFB-like transcription modulator L68I, Q9NWH9 | 0.295 ± 0.089
71 | BAG family molecular chaperone regulator 3 H42R, O95817 | -0.448 ± 0.18
72 | SAFB-like transcription modulator E57L, Q9NWH9 | -0.049 ± 0.071
73 | SAFB-like transcription modulator I56S, Q9NWH9 | -0.678 ± 0.082
74 | BAG family molecular chaperone regulator 3 Q33H, O95817 | -0.708 ± 0.49
75 | BAG family molecular chaperone regulator 3 F39V, O95817 | -0.754 ± 0.11

Row | Substance | abundance fitness
76 | SAFB-like transcription modulator K35L, Q9NWH9 | -0.44 ± 0.11
77 | BAG family molecular chaperone regulator 3 D20A, O95817 | -0.557 ± 0.15
78 | BAG family molecular chaperone regulator 3 N43W, O95817 | -0.415 ± 0.42
79 | BAG family molecular chaperone regulator 3 P21N, O95817 | -0.081 ± 0.21
80 | SAFB-like transcription modulator N65S, Q9NWH9 | -0.162 ± 0.04
81 | BAG family molecular chaperone regulator 3 V54L, O95817 | 0.369 ± 0.097
82 | SAFB-like transcription modulator G43V, Q9NWH9 | -0.601 ± 0.26
83 | SAFB-like transcription modulator G19E, Q9NWH9 | -0.014 ± 0.086
84 | BAG family molecular chaperone regulator 3 W49S, O95817 | -0.436 ± 0.12
85 | BAG family molecular chaperone regulator 3 P24N, O95817 | 0.135 ± 0.24
86 | SAFB-like transcription modulator L30T, Q9NWH9 | -0.936 ± 0.11
87 | BAG family molecular chaperone regulator 3 P24D, O95817 | -0.597 ± 0.36
88 | BAG family molecular chaperone regulator 3 P21F, O95817 | 0.097 ± 0.21
89 | SAFB-like transcription modulator K31F, Q9NWH9 | -0.288 ± 0.037
90 | BAG family molecular chaperone regulator 3 D31P, O95817 | -0.886 ± 0.22
91 | BAG family molecular chaperone regulator 3 G25S, O95817 | -0.726 ± 0.19
92 | SAFB-like transcription modulator V27E, Q9NWH9 | -0.153 ± 0.11
93 | BAG family molecular chaperone regulator 3 D31E, O95817 | 0.166 ± 0.077
94 | SAFB-like transcription modulator D24Q, Q9NWH9 | -0.076 ± 0.037
95 | SAFB-like transcription modulator E67Y, Q9NWH9 | -0.019 ± 0.11
96 | BAG family molecular chaperone regulator 3 W26K, O95817 | 0.189 ± 0.081
97 | SAFB-like transcription modulator N38T, Q9NWH9 | -0.233 ± 0.073
